{"source": "patent US20210115127A1", "about": "(SURFACE ONCOLOGY, published 2021)", "binders": {"B1": {"name": "recombinant human IL-27 (heterodimer of IL-27p28 and EBI3) (ligand)", "chain 1": "FPRPPGRPQLSLQELRREFTVSLHLARKLLSEVRGQAHRFAESHLPGVNLYLLPLGEQLPDVSLTFQAWRRLSDPERLCFISTTLQPFHALLGGLGTQGRWTNMERMQLWAMRLDLRDLQRHLRFQVLAAGFNLPEEEEEEEEEEEEERKGLLPGALGSALQGPAQVSWPQLLSTYRLLHSLELVLSRAVRELLLLSKAGHSVWPLGFPTLSPQP", "chain 2": "RKGPPAALTLPRVQCRASRYPIAVDCSWTLPPAPNSTSPVSFIATYRLGMAARGHSWPCLQQTPTSTSCTITDVQLFSMAPYVLNVTAVHPWGSSSSFVPFITEHIIKPDPPEGVRLSPLAERQLQVQWEPPGSWPFPEIFSLKYWIRYKRQGAARFHRVGPIEATSFILRAVRPRARYYVQVAAQDLTDYGELSDWSLPATATMSLGK", "notes": "Bought recombinant protein (R&D Systems 2526-IL) in the cell and ForteBio assays; also called rhIL-27"}, "B2": {"name": "human IL-27p28 subunit (ligand)", "chain": "FPRPPGRPQLSLQELRREFTVSLHLARKLLSEVRGQAHRFAESHLPGVNLYLLPLGEQLPDVSLTFQAWRRLSDPERLCFISTTLQPFHALLGGLGTQGRWTNMERMQLWAMRLDLRDLQRHLRFQVLAAGFNLPEEEEEEEEEEEEERKGLLPGALGSALQGPAQVSWPQLLSTYRLLHSLELVLSRAVRELLLLSKAGHSVWPLGFPTLSPQP"}}, "key": {"[1]": {"target": "B1", "assay": "cell-based or functional assay"}, "[2]": {"target": "B1", "assay": "cell-based or functional assay", "remark": "listed apart in the source"}, "[3]": {"target": "T1, recombinant cynomolgus monkey IL-27 (cynomolgus monkey, UniProt A0A2K5UBM6 29-244; A0A2K5WPB7 36-244)", "T1 sequence (alpha)": "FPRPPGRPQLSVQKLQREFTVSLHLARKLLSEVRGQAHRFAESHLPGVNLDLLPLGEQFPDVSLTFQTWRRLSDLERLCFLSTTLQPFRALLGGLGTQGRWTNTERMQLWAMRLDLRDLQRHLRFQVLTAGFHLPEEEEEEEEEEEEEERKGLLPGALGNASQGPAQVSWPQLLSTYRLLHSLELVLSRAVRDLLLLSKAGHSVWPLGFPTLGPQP", "T1 sequence (beta)": "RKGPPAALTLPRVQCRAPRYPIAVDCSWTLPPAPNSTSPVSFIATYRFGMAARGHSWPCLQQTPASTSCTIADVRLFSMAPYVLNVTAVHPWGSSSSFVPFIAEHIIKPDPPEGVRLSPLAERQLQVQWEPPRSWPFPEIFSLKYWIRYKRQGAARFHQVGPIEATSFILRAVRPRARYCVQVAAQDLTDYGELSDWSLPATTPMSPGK", "assay": "cell-based or functional assay"}, "[4]": {"target": "T2, recombinant rat IL-27 (rat, UniProt D3ZPW3 29-234; M0RD76 19-228)", "T2 sequence (alpha)": "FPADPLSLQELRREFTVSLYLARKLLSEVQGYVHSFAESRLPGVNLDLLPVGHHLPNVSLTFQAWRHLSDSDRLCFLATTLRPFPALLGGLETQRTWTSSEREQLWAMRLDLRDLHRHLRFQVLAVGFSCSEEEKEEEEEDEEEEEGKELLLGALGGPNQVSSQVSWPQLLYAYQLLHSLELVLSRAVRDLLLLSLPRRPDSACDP", "T2 sequence (beta)": "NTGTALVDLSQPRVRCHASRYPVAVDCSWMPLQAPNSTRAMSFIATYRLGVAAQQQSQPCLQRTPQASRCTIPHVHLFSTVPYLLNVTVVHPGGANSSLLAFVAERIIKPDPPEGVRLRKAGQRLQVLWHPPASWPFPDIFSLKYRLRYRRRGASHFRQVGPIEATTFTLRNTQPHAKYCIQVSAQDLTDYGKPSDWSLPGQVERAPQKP", "assay": "cell-based or functional assay"}, "[5]": {"target": "T3, recombinant mouse IL-27 (mouse, UniProt Q8K3I6 29-234; O35228 19-228)", "T3 sequence (looked up) 1": "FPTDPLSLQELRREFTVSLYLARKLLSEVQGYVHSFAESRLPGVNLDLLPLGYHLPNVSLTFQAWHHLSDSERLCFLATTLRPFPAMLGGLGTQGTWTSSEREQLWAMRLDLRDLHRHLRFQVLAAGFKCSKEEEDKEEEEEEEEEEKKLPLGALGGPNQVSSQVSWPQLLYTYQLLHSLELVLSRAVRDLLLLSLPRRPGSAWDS", "T3 sequence (looked up) 2": "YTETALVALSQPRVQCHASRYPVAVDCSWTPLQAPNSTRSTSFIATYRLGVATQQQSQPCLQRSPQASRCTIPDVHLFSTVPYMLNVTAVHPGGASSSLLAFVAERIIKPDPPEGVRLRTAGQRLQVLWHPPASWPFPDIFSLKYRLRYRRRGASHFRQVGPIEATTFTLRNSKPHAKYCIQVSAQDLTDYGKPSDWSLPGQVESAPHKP", "assay": "cell-based or functional assay"}, "[6]": {"target": "T4, gp130 (human, UniProt P40189 23-619, limits assumed)", "T4 construct": "also called IL6ST; Interleukin-6 Signal Transducer", "T4 sequence": "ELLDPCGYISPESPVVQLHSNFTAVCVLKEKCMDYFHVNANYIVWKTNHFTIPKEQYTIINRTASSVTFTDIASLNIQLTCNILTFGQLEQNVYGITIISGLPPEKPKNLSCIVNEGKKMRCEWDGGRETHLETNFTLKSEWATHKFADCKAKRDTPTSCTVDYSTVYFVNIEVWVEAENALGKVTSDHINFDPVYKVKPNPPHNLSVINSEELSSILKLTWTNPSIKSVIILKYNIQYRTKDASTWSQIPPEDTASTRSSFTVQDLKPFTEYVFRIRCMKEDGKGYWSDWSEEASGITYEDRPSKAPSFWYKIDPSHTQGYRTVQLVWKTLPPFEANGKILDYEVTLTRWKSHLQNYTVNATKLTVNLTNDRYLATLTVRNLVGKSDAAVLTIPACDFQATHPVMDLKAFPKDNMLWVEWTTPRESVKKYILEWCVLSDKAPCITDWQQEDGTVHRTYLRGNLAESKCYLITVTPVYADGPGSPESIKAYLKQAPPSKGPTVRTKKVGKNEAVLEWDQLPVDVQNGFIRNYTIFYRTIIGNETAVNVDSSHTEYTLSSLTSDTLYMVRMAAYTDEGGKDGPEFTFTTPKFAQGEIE", "assay": "SPR on gp130; trace (2), rhIL-27 alone, and trace (1), rhIL-27 + Anti-IL-27 Ab1, both rise to about 45 RU"}, "[7]": {"target": "T5, IL-27RA (WSX-1) (human, UniProt Q6UWB1 33-516, limits assumed)", "T5 construct": "also called IL-27Rα; IL-27 receptor subunit alpha", "T5 sequence": "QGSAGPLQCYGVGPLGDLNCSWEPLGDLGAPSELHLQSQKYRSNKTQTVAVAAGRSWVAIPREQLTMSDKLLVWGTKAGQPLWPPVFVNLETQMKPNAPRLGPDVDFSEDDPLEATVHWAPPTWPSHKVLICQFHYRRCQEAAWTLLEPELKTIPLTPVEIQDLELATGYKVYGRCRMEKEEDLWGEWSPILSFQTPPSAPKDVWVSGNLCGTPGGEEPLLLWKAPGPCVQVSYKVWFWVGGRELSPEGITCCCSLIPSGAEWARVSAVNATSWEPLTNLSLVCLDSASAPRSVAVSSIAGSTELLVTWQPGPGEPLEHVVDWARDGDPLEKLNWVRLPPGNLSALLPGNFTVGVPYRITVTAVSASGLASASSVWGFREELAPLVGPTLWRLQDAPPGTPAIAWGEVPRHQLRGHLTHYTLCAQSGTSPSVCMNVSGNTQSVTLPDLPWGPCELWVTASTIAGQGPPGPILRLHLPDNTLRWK", "assay": "SPR on WSX-1; trace (2), rhIL-27 alone, rises to about 210 RU; trace (1), rhIL-27 + Anti-IL-27 Ab1, stays at or below 0 RU"}, "[8]": {"target": "T4, gp130", "assay": "Drawn table Ligand / Analyte / Result, ligand gp130, analyte IL-27 heterodimer; method not named for this figure (SPR is used in the same example)"}, "[9]": {"target": "T4, gp130", "assay": "Drawn table Ligand / Analyte / Result, ligand gp130, analyte p28 alone; method not named for this figure (SPR is used in the same example)"}, "[10]": {"target": "B2", "assay": "binding affinity data of FIG. 17; method not stated"}, "[11]": {"target": "T5, IL-27RA (WSX-1)", "assay": "Drawn table Ligand / Analyte / Result, ligand WSX-1, analyte EBI3 alone; method not named for this figure (SPR is used in the same example)"}, "[12]": {"target": "B2", "assay": "Drawn table Ligand / Analyte / Result, ligand p28 held by Anti-IL-27 Ab3 (anti-p28), analyte EBI3; method not named for this figure (SPR is used in the same example)"}}, "data": [{"binder": "anti-IL-27 Ab3 (antibody, V domains shown) VH: EVQLVESGGGLVKPGGSLRLSCAASGFTFRSYGMNWVRQAPGKGLEWVSSISSSSSYIYYADSVKGRFTISRDNAKNSLYLQMNSLRAEDTAVYYCARDGGRTSYTATAHNWFDPWGQGTLVTVSS VL: not shown", "values": [{"measurement": "IC50, inhibition of phosphorylation of STAT1 in HUT-78 cells (flow cytometry)", "setting": "[1]", "result": 0.08, "unit": "µg/mL"}, {"measurement": "IC50, inhibition of phosphorylation of STAT1 in U937 cells (flow cytometry)", "setting": "[1]", "result": 0.081, "unit": "µg/mL"}, {"measurement": "IC50, inhibition of phosphorylation of STAT1 in pooled human PBMCs (flow cytometry)", "setting": "[1]", "result": 0.141, "unit": "µg/mL"}]}, {"binder": "anti-IL-27 Ab1 (antibody, V domains shown) VH: EVQLVESGGGLVKPGGSLRLSCAASGFTFRSYGMNWVRQAPGKGLEWVSGISSSGSYIYYADSVKGRFTISRDNAKNSLYLQMNSLRAEDTAVYYCARDGGRTSYTATAHNWFDPWGQGTLVTVSS VL: not shown", "values": [{"measurement": "IC50, inhibition of phosphorylation of STAT1 in HUT-78 cells (flow cytometry)", "setting": "[1]", "result": 0.095, "unit": "µg/mL"}, {"measurement": "IC50, inhibition of phosphorylation of STAT1 in U937 cells (flow cytometry)", "setting": "[1]", "result": 0.096, "unit": "µg/mL"}, {"measurement": "IC50, inhibition of phosphorylation of STAT1 in pooled human PBMCs (flow cytometry)", "setting": "[1]", "result": 0.0583, "unit": "µg/mL"}, {"measurement": "Average IC50, ng/mL; IL-27 pSTAT1 signaling inhibition in peripheral blood T cells, human", "setting": "[2]", "result": 78.4, "unit": "ng/mL"}, {"measurement": "Average IC50, ng/mL; IL-27 pSTAT1 signaling inhibition in peripheral blood T cells, cynomolgus monkey", "setting": "[3]", "result": 118, "unit": "ng/mL"}, {"measurement": "Average IC50, ng/mL; IL-27 pSTAT1 signaling inhibition in peripheral blood T cells, rat", "setting": "[4]", "result": 273, "unit": "ng/mL"}, {"measurement": "Average IC50, ng/mL; IL-27 pSTAT1 signaling inhibition in peripheral blood T cells, mouse", "setting": "[5]", "result": 1720, "unit": "ng/mL"}]}, {"binder": "B1", "values": [{"measurement": "Kd", "setting": "[6]", "result": 4.1, "unit": "nM"}, {"measurement": "Kd", "setting": "[7]", "result": 0.0206, "unit": "nM"}, {"measurement": "Kd", "setting": "[8]", "result": 34, "unit": "nM"}]}, {"binder": "B2", "values": [{"measurement": "Kd", "setting": "[9]", "result": "~1000", "unit": "nM"}]}, {"binder": "human EBI3 subunit (ligand) RKGPPAALTLPRVQCRASRYPIAVDCSWTLPPAPNSTSPVSFIATYRLGMAARGHSWPCLQQTPTSTSCTITDVQLFSMAPYVLNVTAVHPWGSSSSFVPFITEHIIKPDPPEGVRLSPLAERQLQVQWEPPGSWPFPEIFSLKYWIRYKRQGAARFHRVGPIEATSFILRAVRPRARYYVQVAAQDLTDYGELSDWSLPATATMSLGK", "values": [{"measurement": "Kd", "setting": "[10]", "result": 5, "unit": "nM"}, {"measurement": "Kd", "setting": "[11]", "result": 3.81, "unit": "nM"}, {"measurement": "Kd", "setting": "[12]", "result": 5.07, "unit": "nM"}]}]}
